The target in this assay is panel of 118 tier 2,3 viruses. The assay is described as follows: cell-based or functional assay.

B1: N60-B1.1 (antibody, V domains shown)
VH: QLQLQESGPGLVKPSGTLSLTCSVSGGSMNGRNIYWAWIRQTPGKGLEWIGSVDVSDEDAGRTFYKWPIKSRASISADTSKNQFSLKLSSVTVADTGVYYCARETLYYVGNGYYYPLDVFYYNYYMDVWGKGTTVSVSSASTKG
VL: not shown
Turning to B1, the % of neutralized viruses amounted to 40.2%; the Median IC50 (ug/ml), neutralization was determined as 0.37 µg/mL; the average IC50, neutralization (TZM-bl assay) worked out at 0.44 µg/mL.
